Percent of cells with YFP signal above threshold data for one substance are collected here from paper PMC6404601.

In this assay the target is YFP^C-Rho5 or YFP^C-Rho5^G12V. The assay is described as follows: split reporter (BiFC, NanoBiT); BiFC of candidate VN fusions with YFP^C fusions of WT or mutant Rho5 (G12V, K16N) in living yeast cells; z-stack fluorescence microscopy at 22-25°; for Atg21-VN signals quantified above a threshold set from a strain with untagged Rho5.

Values joined by “and” are separate entries in the source; they are usually repeats but may differ in a detail not shown here. Identical values can stand only once.

For “Atg21-VN (Atg21 tagged with VN, the N-terminal fragment of Venus) (from UniProt Q02887 1-496) (natural protein)”, the percent of cells with YFP signal above threshold was 40 % of cells and 62 % of cells.
